Measured values reported in patent US20230391845A1, “GLP-1, GIP AND GLUCAGON RECEPTOR TRIPLE AGONISTS” (priority 2020, published 2023).
Where no end group is shown, it is not given here. [ ]: non-standard residue; d: D form. Aib = CC(C)(N)C(=O)O

B1: Compound No. 39 (peptide)
peptide: H[Aib]HGTFTSDYSIYLEKKYA[Aib]EFVQWLLEGGPSSGAPPPS-NH2
modifications: not fully specified (residue 16); printed as H-Aib-HGTFTSDYSIYLE-K[2-[2-[2-[[2-[2-[2-[[(4S)-4-carboxy-4-(19-carboxynonadecanoylamino)butanoyl]amino]ethoxy]ethoxy]acetyl]amino]ethoxy]ethoxy]acetyl]-KYA-Aib-EFVQWLLEGGPSSGAPPPS-NH2
B2: Compound No. 41 (peptide)
peptide: H[Aib]HGTFTSDYSILLEKKYA[Aib]EFVQWLLEGGPSSGAPPPS-NH2
modifications: not fully specified (residue 16); printed as H-Aib-HGTFTSDYSILLE-K[(2S)-2-amino-6-[[(2S)-2-amino-6-[[(4S)-4-carboxy-4-(19-carboxynonadecanoylamino)butanoyl]amino]hexanoyl]amino]hexanoyl]-KYA-Aib-EFVQWLLEGGPSSGAPPPS-NH2
B3: Compound No. 37 (peptide)
peptide: H[Aib]HGTFTSDYSIYLEKRAA[Aib]EFVQWLLEGGPSSGAPPPS-NH2
modifications: not fully specified (residue 16); printed as H-Aib-HGTFTSDYSIYLE-K[(2S)-2-amino-6-[[(2S)-2-amino-6-[[(4S)-4-carboxy-4-(19-carboxynonadecanoylamino)butanoyl]amino]hexanoyl]amino]hexanoyl]-RAA-Aib-EFVQWLLEGGPSSGAPPPS-NH2
B4: Compound No. 38 (peptide)
peptide: H[Aib]HGTFTSDYSIYLEKKYA[Aib]EFVQWLLEGGPSSGAPPPS-NH2
modifications: not fully specified (residue 16); printed as H-Aib-HGTFTSDYSIYLE-K[(2S)-2-amino-6-[[(2S)-2-amino-6-[[(4S)-4-carboxy-4-(17-carboxyheptadecanoylamino)butanoyl]amino]hexanoyl]amino]hexanoyl]-KYA-Aib-EFVQWLLEGGPSSGAPPPS-NH2
B5: Compound No. 42 (peptide)
peptide: H[Aib]HGTFTSDYSYLLEKQAA[Aib]EFVQWLLEGGPSSGAPPPS-NH2
modifications: not fully specified (residue 16); printed as H-Aib-HGTFTSDYSYLLE-K[(2S)-2-amino-6-[[(2S)-2-amino-6-[[(4S)-4-carboxy-4-(19-carboxynonadecanoylamino)butanoyl]amino]hexanoyl]amino]hexanoyl]-QAA-Aib-EFVQWLLEGGPSSGAPPPS-NH2
B6: Compound No. 40 (peptide)
peptide: H[Aib]HGTFTSDYSYYLEKQAA[Aib]EFVQWLLEGGPSSGAPPPS-NH2
modifications: not fully specified (residue 16); printed as H-Aib-HGTFTSDYSYYLE-K[2-[2-[2-[[2-[2-[2-[[(4S)-4-carboxy-4-(19-carboxynonadecanoylamino)butanoyl]amino]ethoxy]ethoxy]acetyl]amino]ethoxy]ethoxy]acetyl]-QAA-Aib-EFVQWLLEGGPSSGAPPPS-NH2

Each binder was assayed against human glucagon-like peptide 1 receptor (human, UniProt P43220 24-463) (assay: cell-based or functional assay).

Binder	hGLP-1R CRE Luc EC50 (pM)
B1	4.4 pM
B2	4.3 pM
B3	1.8 pM
B4	2.8 pM
B5	1.9 pM
B6	3.7 pM

What follows are binders tested against human glucagon receptor (human, UniProt P47871 26-477) (assay: cell-based or functional assay).
Chain of human glucagon receptor (P47871 26-477): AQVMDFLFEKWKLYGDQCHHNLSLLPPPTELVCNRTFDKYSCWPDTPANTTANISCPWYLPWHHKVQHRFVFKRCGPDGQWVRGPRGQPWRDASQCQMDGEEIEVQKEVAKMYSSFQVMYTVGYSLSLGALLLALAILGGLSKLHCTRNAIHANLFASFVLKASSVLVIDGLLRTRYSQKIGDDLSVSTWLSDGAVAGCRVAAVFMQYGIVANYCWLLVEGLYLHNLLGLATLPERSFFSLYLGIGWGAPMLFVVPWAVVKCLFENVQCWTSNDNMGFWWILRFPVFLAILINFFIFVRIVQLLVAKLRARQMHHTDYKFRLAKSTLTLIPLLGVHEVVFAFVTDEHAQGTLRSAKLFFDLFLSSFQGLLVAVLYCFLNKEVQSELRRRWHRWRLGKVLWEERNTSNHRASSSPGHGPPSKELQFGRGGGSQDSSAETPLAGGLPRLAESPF

Binder	hGcgR CRE Luc EC50 (pM)
B1	12.9 pM
B2	7.6 pM
B3	11.8 pM
B4	6.4 pM
B5	8 pM
B6	36.4 pM

The binders below were run against T1, human glucose-dependent insulinotropic polypeptide receptor (human, UniProt P48546 22-466) (assay: cell-based or functional assay).
T1 sequence (looked up): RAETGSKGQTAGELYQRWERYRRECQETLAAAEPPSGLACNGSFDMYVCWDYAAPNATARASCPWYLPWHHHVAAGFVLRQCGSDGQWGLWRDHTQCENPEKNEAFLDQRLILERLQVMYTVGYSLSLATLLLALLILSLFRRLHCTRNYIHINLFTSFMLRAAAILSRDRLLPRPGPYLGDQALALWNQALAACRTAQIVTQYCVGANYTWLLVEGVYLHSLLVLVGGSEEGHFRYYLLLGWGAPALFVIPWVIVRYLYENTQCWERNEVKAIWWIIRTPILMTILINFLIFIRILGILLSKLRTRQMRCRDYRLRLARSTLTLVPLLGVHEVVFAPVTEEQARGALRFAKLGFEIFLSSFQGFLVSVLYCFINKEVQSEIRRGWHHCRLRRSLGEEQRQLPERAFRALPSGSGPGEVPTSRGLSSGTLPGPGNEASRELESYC

Binder	hGIPR CRE Luc EC50 (pM)
B1	17.9 pM
B2	9.3 pM
B3	10.8 pM
B4	13.1 pM
B5	3.8 pM
B6	5.7 pM
